Our source for the pKd values is publication PMC9482650, “Quantitative fragmentomics allow affinity mapping of interactomes” (Nature Communications, 2022).

Among the targets are GORASP1, Q9BQQ3; DLG1_3, Q12959; Inadl_8, Q8NI35; GRIP2_7, Q9C0E4; Inadl_9, Q8NI35; AHNAK1, Q09666; GOPC, Q9HD26; MAGI1_1, Q96QZ7; GRIP2_6, Q9C0E4; DLG2_3, Q15700; PARD3_3, Q8TEW0; GRID2IP_2, A4D2P6.
Test in all cases: holdup assay
What all share (parameters): key: below the threshold = too weak to quantify, mostly under pKd 3.1 to 4
Common to all, as to conditions: plain residues with an end cap or a label only (N-terminal biotin on a linker: ado-ado)

The target of another assay is T1, GRIP1_5, Q9Y3R0.
T1 sequence (Q9Y3R0 568-668, limits assumed, looked up): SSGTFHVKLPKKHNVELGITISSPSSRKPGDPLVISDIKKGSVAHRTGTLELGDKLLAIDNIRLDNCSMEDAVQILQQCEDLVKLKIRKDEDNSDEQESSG

The target of a further assay is T2, APBA1_1, Q02410.
T2 sequence (Q02410 651-752, limits assumed, looked up): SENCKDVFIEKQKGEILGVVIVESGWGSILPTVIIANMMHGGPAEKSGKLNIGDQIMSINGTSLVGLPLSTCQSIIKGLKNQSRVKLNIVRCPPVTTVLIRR

In another assay the target is T3, APBA3_1, O96018.
T3 sequence (O96018 389-490, limits assumed, looked up): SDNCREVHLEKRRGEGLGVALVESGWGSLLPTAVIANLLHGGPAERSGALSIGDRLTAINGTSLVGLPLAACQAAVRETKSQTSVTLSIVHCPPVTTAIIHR

A further assay concerns the target T4, GRIP1_2, Q9Y3R0.
T4 sequence (Q9Y3R0 145-248, limits assumed, looked up): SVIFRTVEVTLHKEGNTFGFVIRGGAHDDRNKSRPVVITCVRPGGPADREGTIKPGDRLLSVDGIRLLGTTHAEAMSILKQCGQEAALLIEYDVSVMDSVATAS

A further assay concerns the target T5, APBA2_1, Q99767.
T5 sequence (Q99767 563-664, limits assumed, looked up): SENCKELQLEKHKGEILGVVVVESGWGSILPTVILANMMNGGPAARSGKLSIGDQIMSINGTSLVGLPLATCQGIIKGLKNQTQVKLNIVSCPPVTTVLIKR

For a further assay, the target named is T6, SNTG2, Q9NY99.
T6 sequence (Q9NY99 68-166, limits assumed, looked up): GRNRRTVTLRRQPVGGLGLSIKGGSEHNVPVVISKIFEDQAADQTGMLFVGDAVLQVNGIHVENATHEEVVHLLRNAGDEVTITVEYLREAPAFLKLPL

In the next assay the target is T7, TJP3_3, O95049.
T7 sequence (O95049 375-456, limits assumed, looked up): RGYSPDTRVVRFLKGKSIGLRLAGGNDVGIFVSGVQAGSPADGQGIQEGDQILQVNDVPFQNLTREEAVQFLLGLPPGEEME

In another assay the target is T8, MPDZ_5, O75970.
T8 sequence (O75970 695-796, limits assumed, looked up): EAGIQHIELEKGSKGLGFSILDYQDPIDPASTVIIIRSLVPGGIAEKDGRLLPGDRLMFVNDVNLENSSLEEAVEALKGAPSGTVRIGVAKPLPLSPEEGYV

Another assay has as its target T9, SHANK1, Q9Y566.
T9 sequence (Q9Y566 658-767, limits assumed, looked up): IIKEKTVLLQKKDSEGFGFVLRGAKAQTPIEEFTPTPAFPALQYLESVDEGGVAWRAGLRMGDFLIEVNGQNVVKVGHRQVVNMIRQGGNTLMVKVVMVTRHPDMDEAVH

The target in another assay is T10, SNTB1, Q13884.
T10 sequence (Q13884 107-205, limits assumed, looked up): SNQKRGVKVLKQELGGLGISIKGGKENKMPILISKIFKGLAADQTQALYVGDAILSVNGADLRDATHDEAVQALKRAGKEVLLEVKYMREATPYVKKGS

A further assay has as its target T11, SNTG1, Q9NSN8.
T11 sequence (Q9NSN8 52-150, limits assumed, looked up): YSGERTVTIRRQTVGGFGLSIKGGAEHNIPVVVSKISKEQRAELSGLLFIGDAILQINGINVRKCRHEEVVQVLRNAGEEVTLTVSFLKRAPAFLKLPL

The next assay addresses T12, NHERF3_1, Q5T2W1.
T12 sequence (Q5T2W1 4-100, limits assumed, looked up): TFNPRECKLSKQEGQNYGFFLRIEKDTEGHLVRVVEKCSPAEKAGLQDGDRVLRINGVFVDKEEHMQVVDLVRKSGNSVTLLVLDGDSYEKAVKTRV

DLG1_3, Q12959, sequence (Q12959 457-571): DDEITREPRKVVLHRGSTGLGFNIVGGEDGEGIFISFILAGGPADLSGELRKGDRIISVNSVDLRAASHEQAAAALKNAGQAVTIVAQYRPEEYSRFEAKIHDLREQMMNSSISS
Inadl_9, Q8NI35, sequence (Q8NI35 1530-1615): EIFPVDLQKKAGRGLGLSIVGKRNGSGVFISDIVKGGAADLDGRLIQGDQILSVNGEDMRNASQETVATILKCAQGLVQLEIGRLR
GORASP1, Q9BQQ3, sequence (Q9BQQ3 1-208): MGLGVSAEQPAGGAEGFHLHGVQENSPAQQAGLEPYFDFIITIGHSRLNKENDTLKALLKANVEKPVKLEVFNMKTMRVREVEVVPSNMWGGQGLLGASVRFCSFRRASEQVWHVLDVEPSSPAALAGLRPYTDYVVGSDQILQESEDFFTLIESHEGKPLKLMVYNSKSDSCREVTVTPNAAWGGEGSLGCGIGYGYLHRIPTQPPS
PARD3_3, Q8TEW0, sequence (Q8TEW0 582-685): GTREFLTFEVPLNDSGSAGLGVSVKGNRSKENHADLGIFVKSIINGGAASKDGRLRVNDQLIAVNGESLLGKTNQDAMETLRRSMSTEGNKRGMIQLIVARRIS
Inadl_8, Q8NI35, sequence (Q8NI35 1425-1530): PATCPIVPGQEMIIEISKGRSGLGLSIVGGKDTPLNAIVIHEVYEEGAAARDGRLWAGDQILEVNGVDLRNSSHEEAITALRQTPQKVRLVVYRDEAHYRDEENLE
GRID2IP_2, A4D2P6, sequence (A4D2P6 272-370): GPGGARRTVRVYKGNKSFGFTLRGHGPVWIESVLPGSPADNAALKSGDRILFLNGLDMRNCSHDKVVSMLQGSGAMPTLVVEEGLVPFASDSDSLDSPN
MAGI1_1, Q96QZ7, sequence (Q96QZ7 1-106): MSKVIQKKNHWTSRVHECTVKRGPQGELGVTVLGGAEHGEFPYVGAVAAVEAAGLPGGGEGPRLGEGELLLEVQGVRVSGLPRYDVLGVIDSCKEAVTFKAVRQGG
GRIP2_6, Q9C0E4, sequence (Q9C0E4 648-740): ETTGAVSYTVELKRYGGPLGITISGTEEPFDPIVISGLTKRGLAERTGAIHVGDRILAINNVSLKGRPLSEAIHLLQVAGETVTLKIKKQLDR
GRIP2_7, Q9C0E4, sequence (Q9C0E4 934-1023): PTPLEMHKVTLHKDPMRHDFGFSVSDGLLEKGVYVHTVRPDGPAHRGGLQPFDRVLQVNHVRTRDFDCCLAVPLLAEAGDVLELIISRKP
AHNAK1, Q09666, sequence (Q09666 4-100): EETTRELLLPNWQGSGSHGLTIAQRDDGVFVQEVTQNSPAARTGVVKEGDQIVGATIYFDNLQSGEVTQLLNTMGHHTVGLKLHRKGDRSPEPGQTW

One may read the pKd as the negative decadic logarithm of the Kd, by convention in mol/L. Turning to DHLGGGGESM [TNRC6A, Q8NDV7], the pKd entry in the assay with GORASP1, Q9BQQ3 is reported as “below the threshold”; with GRIP1_5, Q9Y3R0, “below the threshold”; in the assay with DLG1_3, Q12959 it was “below the threshold”; with APBA1_1, Q02410, “below the threshold”; with APBA3_1, O96018, “below the threshold”; with Inadl_8, Q8NI35, “below the threshold”. In addition, the pKd result with GRIP1_2, Q9Y3R0 is given as “below the threshold”; in the assay with GRIP2_7, Q9C0E4, “below the threshold”; with Inadl_9, Q8NI35, “below the threshold”; with APBA2_1, Q99767, “below the threshold”; with SNTG2, Q9NY99, “below the threshold”; with TJP3_3, O95049, “below the threshold”. Moreover, the pKd result with MPDZ_5, O75970 was “below the threshold”; with AHNAK1, Q09666, “below the threshold”; with SHANK1, Q9Y566, “below the threshold”; with GOPC, Q9HD26, “below the threshold”; with MAGI1_1, Q96QZ7 it was “below the threshold”; with GRIP2_6, Q9C0E4 it was “below the threshold”. Moreover, the pKd entry in the assay with DLG2_3, Q15700 is recorded as “below the threshold”; with SNTB1, Q13884 it was “below the threshold”; with PARD3_3, Q8TEW0, “below the threshold”; with GRID2IP_2, A4D2P6 it was “below the threshold”; with SNTG1, Q9NSN8 it was “below the threshold”; with NHERF3_1, Q5T2W1, “below the threshold”.
For IPGKEFDTPL [PLCB1, Q9NQ66], the pKd entry with GORASP1, Q9BQQ3 is “below the threshold”; in the assay with GRIP1_5, Q9Y3R0, “below the threshold”; in the assay with DLG1_3, Q12959 it was “below the threshold”; with APBA1_1, Q02410 it was “below the threshold”; in the assay with APBA3_1, O96018, “below the threshold”; with Inadl_8, Q8NI35, “below the threshold”. The pKd entry is given as “below the threshold” with GRIP1_2, Q9Y3R0; “below the threshold” with GRIP2_7, Q9C0E4; “below the threshold” with Inadl_9, Q8NI35; “below the threshold” with APBA2_1, Q99767; “below the threshold” in the assay with SNTG2, Q9NY99; “below the threshold” in the assay with TJP3_3, O95049. Besides, the pKd entry was “below the threshold” with MPDZ_5, O75970; “below the threshold” with AHNAK1, Q09666; 3.96 in the assay with SHANK1, Q9Y566; “below the threshold” with GOPC, Q9HD26; “below the threshold” with MAGI1_1, Q96QZ7; “below the threshold” in the assay with GRIP2_6, Q9C0E4. The pKd result with DLG2_3, Q15700 is “below the threshold”; with SNTB1, Q13884, 3.96; in the assay with PARD3_3, Q8TEW0, “below the threshold”; with GRID2IP_2, A4D2P6 it was “below the threshold”; with SNTG1, Q9NSN8, “below the threshold”; with NHERF3_1, Q5T2W1, 5.12.
For REKKFFCTIL [GNG4, P50150], the negative-log Kd (pKd) is 5.07 with GORASP1, Q9BQQ3; “below the threshold” with GRIP1_5, Q9Y3R0; 4.35 with DLG1_3, Q12959; “below the threshold” with APBA1_1, Q02410; “below the threshold” in the assay with APBA3_1, O96018; 4.52 with Inadl_8, Q8NI35. The pKd with GRIP1_2, Q9Y3R0 is 4.1; in the assay with GRIP2_7, Q9C0E4, “below the threshold”; with Inadl_9, Q8NI35 it was “below the threshold”; with APBA2_1, Q99767, “below the threshold”; in the assay with SNTG2, Q9NY99, 4.35; in the assay with TJP3_3, O95049 it was “below the threshold”. Besides, the pKd entry with MPDZ_5, O75970 was “below the threshold”; in the assay with AHNAK1, Q09666, “below the threshold”; with SHANK1, Q9Y566, 5.21; with GOPC, Q9HD26, 5.18; in the assay with MAGI1_1, Q96QZ7 it was “below the threshold”; with GRIP2_6, Q9C0E4, 4.57. Moreover, the pKd was 4.41 with DLG2_3, Q15700; 4.43 with SNTB1, Q13884; 4.27 in the assay with PARD3_3, Q8TEW0; 5.07 with GRID2IP_2, A4D2P6; “below the threshold” in the assay with SNTG1, Q9NSN8; 5.43 with NHERF3_1, Q5T2W1.
Turning to ALPLPQSSTC [IGF1R, P08069], the pKd entry with GORASP1, Q9BQQ3 was “below the threshold”; with GRIP1_5, Q9Y3R0, “below the threshold”; with DLG1_3, Q12959, 3.56; with APBA1_1, Q02410, “below the threshold”; with APBA3_1, O96018, “below the threshold”; with Inadl_8, Q8NI35 it was 3.66. Moreover, the pKd result is “below the threshold” in the assay with GRIP1_2, Q9Y3R0; “below the threshold” with GRIP2_7, Q9C0E4; “below the threshold” with Inadl_9, Q8NI35; “below the threshold” with APBA2_1, Q99767; “below the threshold” with SNTG2, Q9NY99; “below the threshold” with TJP3_3, O95049. In addition, the pKd entry in the assay with MPDZ_5, O75970 is “below the threshold”; with AHNAK1, Q09666, “below the threshold”; in the assay with SHANK1, Q9Y566, “below the threshold”; with GOPC, Q9HD26, 3.55; in the assay with MAGI1_1, Q96QZ7 it was “below the threshold”; in the assay with GRIP2_6, Q9C0E4, “below the threshold”. Besides, the pKd was 3.76 with DLG2_3, Q15700; “below the threshold” with SNTB1, Q13884; “below the threshold” with PARD3_3, Q8TEW0; 3.99 in the assay with GRID2IP_2, A4D2P6; “below the threshold” with SNTG1, Q9NSN8; “below the threshold” with NHERF3_1, Q5T2W1.
